Experimental data: patent publication US20170281764A1 (JN BIOSCIENCES, published 2017)

Assays:
[1] = molecular target: T1, human TIGIT on cells (Jurkat-TIGIT cells; human T cells, NK cells and other blood cells) (human, UniProt Q495A1 22-244); test: cell-based or functional assay
T1 sequence: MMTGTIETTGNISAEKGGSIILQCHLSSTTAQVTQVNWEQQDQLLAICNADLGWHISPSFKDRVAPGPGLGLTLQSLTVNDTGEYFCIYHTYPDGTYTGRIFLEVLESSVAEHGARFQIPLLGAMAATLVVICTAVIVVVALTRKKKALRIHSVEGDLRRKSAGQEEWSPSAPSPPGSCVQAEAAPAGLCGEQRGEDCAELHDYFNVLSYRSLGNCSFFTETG

[2] = molecular target: T2, extracellular region of human TIGIT fused to FLAG and GPI (hTIGIT-GPI), on the surface of NS0 cells (human); test: flow cytometry on NS0-hTIGIT cells
T2 construct: The GPI signal is processed when the anchor is attached; also called NS0-hTIGIT cells
T2 chain: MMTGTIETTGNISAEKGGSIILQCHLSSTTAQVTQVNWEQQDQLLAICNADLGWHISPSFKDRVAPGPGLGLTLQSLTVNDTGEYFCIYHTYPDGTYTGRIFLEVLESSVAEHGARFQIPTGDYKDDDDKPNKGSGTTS
Experimental: Binding of HuTIG1-IgG1.AA to human TIGIT was also examined by flow cytometry. NS0-hTIGIT cells (8×10⁵ cells) were incubated in 160 μl of FACS Buffer (PBS containing 0.5% bovine serum albumin and 0.05% sodium azide) in the presence (or absence) of various concentrations of HuTIG1-IgG1.AA, starting at 10 μg/ml and serial 2-fold dilutions, for 20 min at 4° C. After washing with FACS Buffer, HuTIG1-IgG1.AA binding on NS0-hTIGIT cells were detected with PE-labeled goat anti-human IgG antibody in FACS Buffer. After incubation for 20 min and washing with FACS Buffer, the cells were subjected to flow cytometry using a FACScan flow cytometer (BD Biosciences, San Jose, Calif.) to obtain the mean channel fluorescence (MCF) at each antibody concentration. […] The EC₅₀ value was 60 ng/ml.

[3] = molecular target: T2, extracellular region of human TIGIT …; test: flow cytometry, competition with hCD155-Fc-FITC (125 ng/ml) for NS0-hTIGIT cells
Experimental: The activity of HuTIG1-IgG1.AA to block the interaction between human TIGIT and human CD155 was analyzed by flow cytometry using NS0-hTIGIT cells. […] After washing with FACS Buffer, NS0-hTIGIT cells were subjected to flow cytometry using a FACScan flow cytometer (BD Biosciences, San Jose, Calif.). To examine the binding of hCD155-Fc-FITC on the cells, MCF was obtained at each antibody concentration. […] The half maximal inhibitory concentration (IC₅₀) of HuTIG1-IgG1.AA to block the TIGIT-CD155 interaction was 67 ng/ml.

L44A = molecular target: T3, L44A; test: flow cytometry titration on CHO-K1 cells transiently expressing the HA-tagged TIGIT mutant, Alexa488 anti-human IgG detection, four-parameter fit of percent of control, nM is from the concentration axis and paragraph 252
T3 construct: also called HA-tagged human TIGIT with mutation L44A, on CHO-K1 cells
T3 single chain: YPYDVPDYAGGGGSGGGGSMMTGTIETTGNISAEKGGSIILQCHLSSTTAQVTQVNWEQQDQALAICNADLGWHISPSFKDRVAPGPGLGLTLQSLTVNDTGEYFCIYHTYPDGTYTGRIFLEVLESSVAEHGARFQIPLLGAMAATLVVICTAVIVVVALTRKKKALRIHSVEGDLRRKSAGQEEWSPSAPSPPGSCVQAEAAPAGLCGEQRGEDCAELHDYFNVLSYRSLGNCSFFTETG
Experimental: For flow cytometry analysis of the anti-hTIGIT antibody binding epitope, HA-tagged human TIGIT proteins with or without single amino acid mutation were transiently transfected into CHO-K1 cells. After 24 hr, transfected cells were suspended in HBSS buffer (Thermo Fisher Scientific, Cat#14175095), and incubated with HuTIG1-IgG1.AA antibody at varying concentrations in 50 μL volume. After 1 hr incubation at 4° C., cells were washed and a second incubation with 50 μL Alexa488 conjugated anti-human IgG(H+L) secondary antibody (Thermo Fisher Scientific, Cat#A-11013) was performed to detect cells bound by antibody. Cells were incubated with an anti-HA antibody (Sigma, Cat# H7411) as a positive control, and non-transfected CHO-K1 cells were used as a negative control. The cells were analyzed on an Attune NxT Cytometer (Thermo Fisher Scientific) and the data were processed using FlowJo software. For each mutant, the saturating antibody binding MFI (mean fluorescence intensity) were normalized to 100% POC (percent of control), and no primary antibody binding control MFI were normalized to 0% POC. Data were then fit to a four parameter non-linear sigmoidal curve using GraphPad Prism 7 curve fitting using following formula: Y=Bottom+(Top−Bottom)/(1+10^{((Log EC}^₅₀^{-X)*HillSlope)}).
All of these residues co-locate to one discrete region on the front ([…] structure of the TIGIT IgV extracellular domain (FIG. 28).

[4] = molecular target: T4, His-tagged soluble recombinant human TIGIT (Cat # TIT-H52H3; Acro Biosystems) (human, UniProt Q495A1 22-141); test: SPR (BioRad ProteOn XPR36), antibody captured by anti-human IgG, soluble TIGIT as analyte, 25 °C, 1:1 model
T4 construct: Bought reagent; not shown: His tag
T4 sequence (looked up): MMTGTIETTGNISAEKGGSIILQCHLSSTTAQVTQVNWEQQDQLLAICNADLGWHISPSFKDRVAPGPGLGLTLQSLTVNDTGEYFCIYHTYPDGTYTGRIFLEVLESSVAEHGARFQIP
Experimental: Biosensor studies for HuTIG1-IgG1.AA were run on a BioRad ProteOn XPR36 system in 10 mM HEPES, 150 mM NaCl, pH 7.4, 0.005% Tween-20 and 0.2 mg/ml BSA at 25° C. HuTIG1-IgG1.AA was diluted to 3.7, 1.2 and 0.4 nM and captured for 5 minutes onto a GLM sensor chip coated with ˜10,000 RU of GE's anti-human IgG antibody. His-tagged soluble recombinant human TIGIT (Cat # TIT-H52H3; Acro Biosystems, Newark, Del.) was tested at 100 nM as the highest concentration in a 3-fold dilution series down to 1.2 nM. The data from the three different density antibody surfaces were globally fit to a 1:1 interaction model using a local Rmax.

B1: HuTIG1-IgG1.AA (humanized IgG1/kappa form of TIG1, L234A/L235A) (antibody)
heavy: not shown
light: DIQMTQSPSSLSASVGDRVTITCRASKSISKYLAWYQQKPGKAPKLLIYSGSTLQSGVPSRFSGSGSGTDFTLTISSLQPEDFATYYCQQHNEYPWTFGGGTKVEIKRTVAAPSVFIFPPSDEQLKSGTASVVCLLNNFYPREAKVQWKVDNALQSGNSQESVTEQDSKDSTYSLSSTLTLSKADYEKHKVYACEVTHQGLSSPVTKSFNRGEC
notes: Mature full chains; also called humanized TIG1
With B1 the “increase of K562 target cell killing by purified NK cells, 10 µg/ml antibody, relative to 'No Antibody' or Rituxan” value [1] was 28%, the EC50 [2] was 0.06 µg/mL and the IC50 [3] was 0.067 µg/mL. The EC50 (L44A) was 1.23 nM, the Kd [4] was 0.925 nM and the koff [4] was 0.000409 s⁻¹. It also gave a kon [4] of 442000 M⁻¹ s⁻¹.
